Test results as given in paper PMC9427789.

These binders were tested against alanine substitution at H52, R76, F108 residues of FGF23 (three single mutants, as a group) (human) (assay: ELISA; indirect ELISA: FGF23 or its mutants coated at 2 µg/mL on Maxisorp plates (4 °C overnight), Burosumab or its variants three-fold serially diluted in PBS from 9 µg/mL, room temperature 2 h, anti-human IgG H&L-HRP, A450; fold change from Kd values against the wild type). Details: not given.

fold decrease in binding against wild-type FGF23 [fold]	Binder
7 to 10	Burosumab (wild type) (antibody, V domains shown) VH: QVQLVQSGAEVKKPGASVKVSCKASGYTFTNHYMHWVRQAPGQGLEWMGIINPISGSTSNAQKFQGRVTMTRDTSTSTVYMELSSLRSEDTAVYYCARDIVDAFDFWGQGTMVTVSS VL: AIQLTQSPSSLSASVGDRVTITCRASQGISSALVWYQQKPGKAPKLLIYDASSLESGVPSRFSGSGSGTDFTLTISSLQPEDFATYYCQQFNDYFTFGPGTKVDIK

The binders below were run against Burosumab (wild type) (assay: indirect ELISA). Details: chain shown with the change; level of the fitted curve at the highest mAb concentration, log [µg/mL] = 0.5; parent: est. 0.57; read off a plot.

response [A450]	Binder
0.8	mouse FGF23 (wild type), Q9EPC2 Q117H; A159S (protein) YPDTSPLLGSNWGSLTHLYTATARTSYHLQIHRDGHVDGTPHQTIYSALMITSEDAGSVVITGAMTRRFLCMDLHGNIFGSLHFSPENCKFRHWTLENGYDVYLSQKHHYLVSLGRAKRIFQPGTNPPPFSQFLSRRNEVPLLHFYTVRPRRHTRSAEDPPERDPLNVLKPRPRATPVPVSCSRELPSAEEGGPAASDPLGVLRRGRGDARGGAGGADRCRPFPRFV
0.98	mouse FGF23 (wild type), Q9EPC2 T49N; Q117H; A159S (protein) YPDTSPLLGSNWGSLTHLYTATARNSYHLQIHRDGHVDGTPHQTIYSALMITSEDAGSVVITGAMTRRFLCMDLHGNIFGSLHFSPENCKFRHWTLENGYDVYLSQKHHYLVSLGRAKRIFQPGTNPPPFSQFLSRRNEVPLLHFYTVRPRRHTRSAEDPPERDPLNVLKPRPRATPVPVSCSRELPSAEEGGPAASDPLGVLRRGRGDARGGAGGADRCRPFPRFV
0.9	mouse FGF23 (wild type), Q9EPC2 T49N; T76R; Q117H; A159S (protein) YPDTSPLLGSNWGSLTHLYTATARNSYHLQIHRDGHVDGTPHQTIYSALMIRSEDAGSVVITGAMTRRFLCMDLHGNIFGSLHFSPENCKFRHWTLENGYDVYLSQKHHYLVSLGRAKRIFQPGTNPPPFSQFLSRRNEVPLLHFYTVRPRRHTRSAEDPPERDPLNVLKPRPRATPVPVSCSRELPSAEEGGPAASDPLGVLRRGRGDARGGAGGADRCRPFPRFV
0.78	mouse FGF23 (wild type), Q9EPC2 T76R (protein) YPDTSPLLGSNWGSLTHLYTATARTSYHLQIHRDGHVDGTPHQTIYSALMIRSEDAGSVVITGAMTRRFLCMDLHGNIFGSLHFSPENCKFRQWTLENGYDVYLSQKHHYLVSLGRAKRIFQPGTNPPPFSQFLARRNEVPLLHFYTVRPRRHTR
0.4	mouse FGF23 (wild type), Q9EPC2 A159S (protein) YPDTSPLLGSNWGSLTHLYTATARTSYHLQIHRDGHVDGTPHQTIYSALMITSEDAGSVVITGAMTRRFLCMDLHGNIFGSLHFSPENCKFRQWTLENGYDVYLSQKHHYLVSLGRAKRIFQPGTNPPPFSQFLSRRNEVPLLHFYTVRPRRHTR
0.59	mouse FGF23 (wild type), Q9EPC2 T49N (protein) YPDTSPLLGSNWGSLTHLYTATARNSYHLQIHRDGHVDGTPHQTIYSALMITSEDAGSVVITGAMTRRFLCMDLHGNIFGSLHFSPENCKFRQWTLENGYDVYLSQKHHYLVSLGRAKRIFQPGTNPPPFSQFLARRNEVPLLHFYTVRPRRHTR
0.78	mouse FGF23 (wild type), Q9EPC2 Q117H (protein) YPDTSPLLGSNWGSLTHLYTATARTSYHLQIHRDGHVDGTPHQTIYSALMITSEDAGSVVITGAMTRRFLCMDLHGNIFGSLHFSPENCKFRHWTLENGYDVYLSQKHHYLVSLGRAKRIFQPGTNPPPFSQFLARRNEVPLLHFYTVRPRRHTR

Same assay, conditions: chain shown with the change;; read off a plot

ratio to parent	Binder
1	His-SUMO-FGF23 (N-terminal domain of human FGF23, wild type), Q9GZV9 R48A (protein) YPNASPLLGSSWGGLIHLYTATAANSYHLQIHKNGHVDGAPHQTIYSALMIRSEDAGFVVITGVMSRRYLCMDFRGNIFGSHYFDPENCRFQHQTLENGYDVYHSPQYHFLVSLGRAKRAFLPGMNPPPYSQFLSRRNEIPLIHFNTPIPRRHTRSAEDDSERDPLNVLKPRARMTPAPA
1	His-SUMO-FGF23 (N-terminal domain of human FGF23, wild type), Q9GZV9 E121A (protein) YPNASPLLGSSWGGLIHLYTATARNSYHLQIHKNGHVDGAPHQTIYSALMIRSEDAGFVVITGVMSRRYLCMDFRGNIFGSHYFDPENCRFQHQTLANGYDVYHSPQYHFLVSLGRAKRAFLPGMNPPPYSQFLSRRNEIPLIHFNTPIPRRHTRSAEDDSERDPLNVLKPRARMTPAPA
1.1	His-SUMO-FGF23 (N-terminal domain of human FGF23, wild type), Q9GZV9 F82A (protein) YPNASPLLGSSWGGLIHLYTATARNSYHLQIHKNGHVDGAPHQTIYSALMIRSEDAGAVVITGVMSRRYLCMDFRGNIFGSHYFDPENCRFQHQTLENGYDVYHSPQYHFLVSLGRAKRAFLPGMNPPPYSQFLSRRNEIPLIHFNTPIPRRHTRSAEDDSERDPLNVLKPRARMTPAPA
8.2	His-SUMO-FGF23 (N-terminal domain of human FGF23, wild type), Q9GZV9 R76A (protein) YPNASPLLGSSWGGLIHLYTATARNSYHLQIHKNGHVDGAPHQTIYSALMIASEDAGFVVITGVMSRRYLCMDFRGNIFGSHYFDPENCRFQHQTLENGYDVYHSPQYHFLVSLGRAKRAFLPGMNPPPYSQFLSRRNEIPLIHFNTPIPRRHTRSAEDDSERDPLNVLKPRARMTPAPA
9	His-SUMO-FGF23 (N-terminal domain of human FGF23, wild type), Q9GZV9 H52A (protein) YPNASPLLGSSWGGLIHLYTATARNSYALQIHKNGHVDGAPHQTIYSALMIRSEDAGFVVITGVMSRRYLCMDFRGNIFGSHYFDPENCRFQHQTLENGYDVYHSPQYHFLVSLGRAKRAFLPGMNPPPYSQFLSRRNEIPLIHFNTPIPRRHTRSAEDDSERDPLNVLKPRARMTPAPA
1.4	His-SUMO-FGF23 (N-terminal domain of human FGF23, wild type), Q9GZV9 Y107A (protein) YPNASPLLGSSWGGLIHLYTATARNSYHLQIHKNGHVDGAPHQTIYSALMIRSEDAGFVVITGVMSRRYLCMDFRGNIFGSHAFDPENCRFQHQTLENGYDVYHSPQYHFLVSLGRAKRAFLPGMNPPPYSQFLSRRNEIPLIHFNTPIPRRHTRSAEDDSERDPLNVLKPRARMTPAPA
1.8	His-SUMO-FGF23 (N-terminal domain of human FGF23, wild type), Q9GZV9 Y70A (protein) YPNASPLLGSSWGGLIHLYTATARNSYHLQIHKNGHVDGAPHQTIASALMIRSEDAGFVVITGVMSRRYLCMDFRGNIFGSHYFDPENCRFQHQTLENGYDVYHSPQYHFLVSLGRAKRAFLPGMNPPPYSQFLSRRNEIPLIHFNTPIPRRHTRSAEDDSERDPLNVLKPRARMTPAPA
1.7	His-SUMO-FGF23 (N-terminal domain of human FGF23, wild type), Q9GZV9 Y43A (protein) YPNASPLLGSSWGGLIHLATATARNSYHLQIHKNGHVDGAPHQTIYSALMIRSEDAGFVVITGVMSRRYLCMDFRGNIFGSHYFDPENCRFQHQTLENGYDVYHSPQYHFLVSLGRAKRAFLPGMNPPPYSQFLSRRNEIPLIHFNTPIPRRHTRSAEDDSERDPLNVLKPRARMTPAPA
6.2	His-SUMO-FGF23 (N-terminal domain of human FGF23, wild type), Q9GZV9 F108A (protein) YPNASPLLGSSWGGLIHLYTATARNSYHLQIHKNGHVDGAPHQTIYSALMIRSEDAGFVVITGVMSRRYLCMDFRGNIFGSHYADPENCRFQHQTLENGYDVYHSPQYHFLVSLGRAKRAFLPGMNPPPYSQFLSRRNEIPLIHFNTPIPRRHTRSAEDDSERDPLNVLKPRARMTPAPA
2.2	His-SUMO-FGF23 (N-terminal domain of human FGF23, wild type), Q9GZV9 H133A (protein) YPNASPLLGSSWGGLIHLYTATARNSYHLQIHKNGHVDGAPHQTIYSALMIRSEDAGFVVITGVMSRRYLCMDFRGNIFGSHYFDPENCRFQHQTLENGYDVYHSPQYAFLVSLGRAKRAFLPGMNPPPYSQFLSRRNEIPLIHFNTPIPRRHTRSAEDDSERDPLNVLKPRARMTPAPA
1.4	His-SUMO-FGF23 (N-terminal domain of human FGF23, wild type), Q9GZV9 R99A (protein) YPNASPLLGSSWGGLIHLYTATARNSYHLQIHKNGHVDGAPHQTIYSALMIRSEDAGFVVITGVMSRRYLCMDFAGNIFGSHYFDPENCRFQHQTLENGYDVYHSPQYHFLVSLGRAKRAFLPGMNPPPYSQFLSRRNEIPLIHFNTPIPRRHTRSAEDDSERDPLNVLKPRARMTPAPA
